Data taken from patent US20260176378A1 (DYAX, published 2026).
Residue numbers refer to the chain shown, from its start.

B1: M9-A08 (Fab, V domains shown)
VH: EVQLLESGGGLVQPGGSLRLSCAASGFTFSAYEMWWVRQAPGKGLEWVSYIGSSGGSTSYADSVKGRFTISRDNSKNTLYLQMNSLRAEDTAVYYCTGGNSSSFDAFDIWGQGTMVTVSS
VL: DIQMTQSPSSLSASVGDRVTVTCRASQRISTYLNWYQQKPGKAPKLLISGASSLQSGVPSRFSGSGSGTDFTLTISSLQPDDFATYYCQQSYNTPRTFGQGTKVEIR
B2: M9-C08 (Fab, V domains shown)
VH: EVQLLESGGGLVQPGGSLRLSCAASGFTFSHYGMVWVRQAPGKGLEWVSYIVPSGGLTYYADSVKGRFTISRDNSKNTLYLQMNSLRAEDTAVYYCARVDYTGDGLGYWGQGTLVTVSS
VL: DIQMTQSPSSLSASVGDRVTITCRASQSISIYVNWYQQKPGKAPNLLIFAASSLQRGVPSRFSGSGSGADFTLTISSLQPEDFATYYCQQSFSTPLTFGGGTKVEIK
B3: M8-G09 (Fab, V domains shown)
VH: EVQLLESGGGLVQPGGSLRLSCAASGFTFSLYEMLWVRQAPGKGLEWVSVIYPSGGYTDYADSVKGRFTISRDNSKNTLYLQMNSLRAEDMAVYYCARSFSGFGEIDYWGQGTLVTVSS
VL: DIQMTQSPSSLSASVGDTVTITCRASQGVSYYLAWFQQKPGKAPKSLIYGASSLQSGVPSKFSGSGSGTVFTLTISSLQPDDFATYYCQQYNTYPPTFGQGTRLDIK
B4: M8-E06 (Fab, V domains shown)
VH: EVQLLESGGGLVQPGGSLRLSCAASGFTFSHYFMTWVRQAPGKGLEWVSSIVPSGGMTQYADSVKGRFTISRDNSKNTLYLQMNSLRAEDTAVYYCARDSYSSSWFDIWGQGTMVTVSS
VL: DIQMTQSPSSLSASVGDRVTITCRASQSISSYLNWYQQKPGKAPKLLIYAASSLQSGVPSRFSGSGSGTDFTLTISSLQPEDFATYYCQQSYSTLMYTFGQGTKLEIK
B5: M8-C04 (Fab, V domains shown)
VH: EVQLLESGGGLVQPGGSLRLSCAASGFTFSYYPMQWVRQAPGKGLEWVSYIYPSGGLTSYADSVKGRFTISRDNSKNTLYLQMNSLRAEDTAVYYCARLFYGSGSVGFEYWGQGTLVTVSS
VL: QSALTQPPSVSVSPGQTASITCSGDKLGDKYTSWHQQKPGQSPVLVIYQDSKRPSGIPERFSGSNSGNTATLTISGTQAMDEADYYCQAWDSSTVFGGGTRLTVL
B6: M9-D08 (Fab, V domains shown)
VH: EVQLLESGGGLVQPGGSLRLSCAASGFTFSWYKMMWVRQAPGKGLEWVSSIYPSGGWTNYADSVKGRFTISRDNSKNTLYLQMNSLRAEDTAVYYCTRGSPWGDDAFDIWGQGTMVTVSS
VL: DIQMTQSPSSLSASVGDRVTLTCRASRTISFYLNWYQQKAGKAPELLIYGGSSLHSGVPSRFSGSGSGTDFSLTISNLQPEDIAVYYCQQSFSSPWTFGQGTKVEIK
B7: M9-A03 (Fab, V domains shown)
VH: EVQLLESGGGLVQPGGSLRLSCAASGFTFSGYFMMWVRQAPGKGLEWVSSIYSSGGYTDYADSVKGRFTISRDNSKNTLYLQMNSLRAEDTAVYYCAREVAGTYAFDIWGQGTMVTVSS
VL: DIQMTQSPSSLSASLGDRVTITCRASQNIDIYLNWYQQTPGKAPKLLIYGAYNLQSGVPSRFSGSGSGTDFTLTISSLQPEDFGTYYCQQSYGTPVFGQGTKLEIK
B8: M6-G05 (Fab, V domains shown)
VH: EVQLLESGGGLVQPGGSLRLSCAASGFTFSRYRMVWVRQAPGKGLEWVSSIYPSGGMTAYADSVKGRFTISRDNSKNTLYLQMNSLRAEDTAVYYCARDAVGIGDAFDIWGQGTMVTVSS
VL: DIQMTQSPSSLSASVGDRVTITCRASQSISTYLNWYQLKPGKAPKLLIYNAFSMERGVPSTISGSGSGTDFTLTISSLQPEDFATYYCQQSYTTPTTFGQGTKVEIK
B9: M9-H02 (Fab, V domains shown)
VH: B8 VH with R31A, R33M, V35I, S50V, M57V, A59M, D99G, A100T, I103A, G104S
VL: DIQMTQSPSSLSASVGDRVIITCRASRSIATYLNWYQQKPGKAPNLLIFGASTLQSGVPSRFSGSGSGTDFTLTISDLQPEDFATYYCQQSFSDPYTFGQGTNLEMK
B10: M9-E04 (Fab, V domains shown)
VH: EVQLLESGGGLVQPGGSLRLSCAASGFTFSEYDMMWVRQAPGKGLEWVSSIGSSGGMTYYADSVKGRFTISRDNSKNTLYLQMNSLRAEDTAVYYCARDQVAAAAIDYWGQGTLVTVSS
VL: DIQMIQSPSSLSASVGDRVTITCRASQSISGYLNWYQQRSGKAPKLLIFAASNLQTGVPSRFSGSGSGTDFTLTINNLQPEDFATYYCQQSHTPPKTFGPGTKVDIK
B11: M9-C10 (Fab, V domains shown)
VH: EVQLLESGGGLVQPGGSLRLSCAASGFTFSLYPMQWVRQAPGKGLEWVSSIGSSGGMTFYADSVKGRFTISRDNSKNTLYLQMNSLRAEDTAVYYCTREVGAAGFAFDIWGQGTMVTVSS
VL: DIQMTQSPSSLSASVGDRVTITCRASQGISSYLNWYQQKPGNAPNLLIYGASSLQSGVPSRFSGSGSGTDFTLTISSLQPEDFATYYCQESYSTLFTFGPGTTVEIK
B12: M8-D05 (Fab, V domains shown)
VH: EVQLLESGGGLVQPGGSLRLSCAASGFTFSLYNMNWVRQAPGKGLEWVSSISPSGGFTDYADSVKGRFTISRDNSKNTLYLQMNSLRAEDTAVYYCARDLDLGILDYWGQGTLVTVSS
VL: DIQMTQSPSFVSASVGDRVTITCRASQDISSWLVWYQQKPGKGPKLLIYDASNLQSGVPSRFSGGGSGTHFTLTISSLQPEDFATYYCQQADGFPLTFGGGTKVEMK
B13: M9-G08 (Fab, V domains shown)
VH: EVQLLESGGGLVQPGGSLRLSCAASGFTFSYYTMLWVRQAPGKGLEWVSSIYPSGGFTMYADSVKGRFTISRDNSKNTLYLQMNSLRAEDTAVYYCARVDTAMAMIDYWGQGTLVTVSS
VL: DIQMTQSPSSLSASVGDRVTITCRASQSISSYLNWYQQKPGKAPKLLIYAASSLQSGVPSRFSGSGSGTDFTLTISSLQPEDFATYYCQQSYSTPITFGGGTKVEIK
B14: M8-H04 (Fab, V domains shown)
VH: EVQLLESGGGLVQPGGSLRLSCAASGFTFSGYWMGWVRQAPGKGLEWVSSISSSGGWTQYADSVKGRFTISRDNSKNTLYLQMNSLRAEDTATYYCARDDEIAAGGAFDIWGQGAMVTVSS
VL: DIQMTQSPSSLSASIGDRVTITCRASQYISTYLNWYEQKPGKAPKLLIYGTSSLQSGVPSRFSGSGSGTEFSLTISSLQPEDFATYYCQQSFTTPFTFGQGTKLEIK
B15: M9-F10 (Fab, V domains shown)
VH: EVQLLESGGGLVQPGGSLRLSCAASGFTFSDYDMEWVRQAPGKGLEWVSSISPSGGSTIYADSVKGRFTISRDNSKNTLYLQMNSLRAEDTAVYYCARQGLLTAFDIWGQGTMVTVSS
VL: DIQMTQSPSSLSASVGDRVTITCRASQSINTYLNWYQQKPGKAPKVLIHAASTLESGVPSRFSGSGSGTDFTLTISSLQPEDFATYYCQQSYSTPYTFGQGTKLEVR
B16: M9-F08 (Fab, V domains shown)
VH: EVQLLESGGGLVQPGGSLRLSCAASGFTFSPYAMTWVRQAPGKGLEWVSVIYPSGGFTDYADSVKGRFTISRDNSKNTLYLQMNSLRAEDTAMYYCARASGSYLDAFDIWGQGTMVTVSS
VL: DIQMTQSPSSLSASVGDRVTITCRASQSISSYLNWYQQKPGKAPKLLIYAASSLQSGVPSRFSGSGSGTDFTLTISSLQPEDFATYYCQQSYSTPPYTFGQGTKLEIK
B17: M9-F09 (Fab, V domains shown)
VH: EVQLLESGGGLVQPGGSLRLSCAASGFTFSSYPMGWVRQAPGKGLEWVSRISSSGGMTIYADSVKGRFTISRDNSKNTLYLQMNSLRAEDTAVYYCARDDWNVGMDVWGQGTTVTVSS
VL: DIQMTQSPSSLSASVGDRVTITCRASQSISSYLNWYQQKPGKAPKLLIYAASSLQSGVPSKFSGSGSGTDYTLTISSLQPEDFATYYCQQTYTTPWTFGQGTKVEIK

Biological target: T1, human plasma kallikrein (human, UniProt P03952 20-390; P03952 391-638)
T1 construct: two disulfide-linked chains; NP_000883.2; also called pKal; hpKal
Assay: ELISA, biotinylated pKal signal over streptavidin background

T1 sequence (P03952 20-390 limits assumed, chain 1 of 2): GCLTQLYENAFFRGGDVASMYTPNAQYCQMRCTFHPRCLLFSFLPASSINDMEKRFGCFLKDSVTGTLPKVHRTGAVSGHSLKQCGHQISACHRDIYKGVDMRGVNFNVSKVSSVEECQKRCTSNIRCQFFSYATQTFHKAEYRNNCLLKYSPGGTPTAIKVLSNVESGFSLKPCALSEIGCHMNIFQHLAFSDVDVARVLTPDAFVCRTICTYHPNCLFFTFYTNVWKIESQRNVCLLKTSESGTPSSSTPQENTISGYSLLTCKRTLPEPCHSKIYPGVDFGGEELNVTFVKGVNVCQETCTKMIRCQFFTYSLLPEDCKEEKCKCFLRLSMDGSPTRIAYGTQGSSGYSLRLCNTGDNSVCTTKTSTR
T1 sequence (P03952 391-638 limits assumed, chain 2 of 2): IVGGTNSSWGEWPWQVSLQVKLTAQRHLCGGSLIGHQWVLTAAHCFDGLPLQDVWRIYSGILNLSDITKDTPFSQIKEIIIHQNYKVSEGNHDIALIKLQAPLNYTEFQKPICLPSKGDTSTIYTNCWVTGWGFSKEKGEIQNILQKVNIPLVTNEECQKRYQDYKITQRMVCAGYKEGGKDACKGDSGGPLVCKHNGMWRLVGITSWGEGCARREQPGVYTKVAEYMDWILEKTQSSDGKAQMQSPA

Row | Binder | ELISA (T/B)
1 | B1 | 5.5
2 | B2 | 10.9
3 | B3 | 28.2
4 | B4 | 8.8
5 | B5 | 44.7
6 | B6 | 35.9
7 | B7 | 14.4
8 | B8 | 18.5
9 | B9 | 3.5
10 | B10 | 18.8
11 | B11 | 7.8
12 | B12 | 11.9
13 | B13 | 4.8
14 | B14 | 3.3
15 | B15 | 8.4
16 | B16 | 10.9
17 | B17 | 7
